Test results taken from publication PMC12582121.

Target: glyceraldehyde-3-phosphate dehydrogenase (GAPDH) (human) (UniProt P04406)
Test: mass photometry; recombinant GAPDH without RNA; 100 nM GAPDH in binding buffer (10 mM Tris-HCl pH 8.0, 50 mM KCl, 2 mM DTT, 0.5 mM EDTA), 25 min at room temperature, diluted 1:10 for measurement; TwoMP mass photometer; monomer and tetramer peaks seen

Chain of glyceraldehyde-3-phosphate dehydrogenase (GAPDH), P04406 1-335 (enzyme; other documents disagree on this pair) (P04406 whole entry): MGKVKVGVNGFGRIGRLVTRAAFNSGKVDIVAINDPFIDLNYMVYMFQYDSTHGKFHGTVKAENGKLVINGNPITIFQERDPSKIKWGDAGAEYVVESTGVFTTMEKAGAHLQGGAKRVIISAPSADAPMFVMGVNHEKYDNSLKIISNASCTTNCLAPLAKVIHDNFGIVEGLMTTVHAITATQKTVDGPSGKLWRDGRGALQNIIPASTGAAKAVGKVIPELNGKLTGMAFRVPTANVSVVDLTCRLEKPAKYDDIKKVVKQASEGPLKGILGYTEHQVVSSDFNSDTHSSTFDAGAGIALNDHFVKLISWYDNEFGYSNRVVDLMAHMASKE

glyceraldehyde-3-phosphate dehydrogenase (GAPDH), P04406 1-335 (enzyme; other documents disagree on this pair)
stoichiometry N: 4
